Measured values published in patent publication US20240174744A1 (SCIRHOM, published 2024).
Where a chain is given by its changes, count along the chain named.

T1: hiR1-FL-WT-T7 (human iRhom1 full length wild type C-terminally tagged with 3 consecutive copies of the T7 … (human, UniProt Q96CC6 1-855))
T1 construct: also called human iRhom1 variant expressed by MEF-DKO-hiR1-FL-WT-T7 cells
T1 sequence: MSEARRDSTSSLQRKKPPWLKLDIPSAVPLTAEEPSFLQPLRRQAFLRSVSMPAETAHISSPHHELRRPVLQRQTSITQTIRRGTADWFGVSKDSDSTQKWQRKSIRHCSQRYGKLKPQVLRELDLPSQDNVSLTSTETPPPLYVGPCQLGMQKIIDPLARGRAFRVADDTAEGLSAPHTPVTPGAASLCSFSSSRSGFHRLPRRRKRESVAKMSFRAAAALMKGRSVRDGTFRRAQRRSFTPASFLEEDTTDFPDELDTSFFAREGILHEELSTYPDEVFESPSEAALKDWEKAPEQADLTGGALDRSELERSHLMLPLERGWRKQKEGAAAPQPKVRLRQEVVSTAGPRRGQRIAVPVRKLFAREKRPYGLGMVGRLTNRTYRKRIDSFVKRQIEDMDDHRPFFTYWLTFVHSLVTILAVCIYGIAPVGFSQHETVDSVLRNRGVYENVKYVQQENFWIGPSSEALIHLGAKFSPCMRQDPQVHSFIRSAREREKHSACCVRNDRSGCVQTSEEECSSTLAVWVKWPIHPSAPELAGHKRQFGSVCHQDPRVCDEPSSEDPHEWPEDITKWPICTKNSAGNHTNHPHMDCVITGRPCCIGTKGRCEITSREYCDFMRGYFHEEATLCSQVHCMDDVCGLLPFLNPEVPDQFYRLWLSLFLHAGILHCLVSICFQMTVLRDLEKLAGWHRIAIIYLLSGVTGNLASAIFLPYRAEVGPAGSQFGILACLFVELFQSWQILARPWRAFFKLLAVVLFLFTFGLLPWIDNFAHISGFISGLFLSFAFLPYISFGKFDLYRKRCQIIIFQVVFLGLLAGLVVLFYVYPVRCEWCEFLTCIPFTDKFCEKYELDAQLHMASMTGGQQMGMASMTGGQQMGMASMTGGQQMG

B1: antibody 43 (antibody, V domains shown)
VH: QVALKESGPGILQPSQTLSLTCSFSGFSLSTFGMGVGWIRQSSGKGLEWLANIWWDDDKYYNPALKSRLTISKDASKNQAFLKIANVDTADTATYYCARIGNYGSNYWYFDVWGTGTTVTVSS
VL: QIVLTQSPAIMSASPGERVTMTCSANSRISYMYWYQQKPGSSPRLLIYDTSNLASGVPVRFSGSGSGTSYSLTISRMEAEDAATYNCQQWSSYPLTFGAGTKLELK
notes: Mouse IgG, kappa light chain; also called clone #43
B2: antibody 42 (antibody, V domains shown)
VH: B1 VH with A3T, F24L, M34R, S42P, N52H, D58E, A75T, A80V, K83R, G101Q
VL: B1 VL with Q1L, R18K, S24G, N26T, Y33F, L45V, M77V, A82V, N86Y, S91N
notes: Mouse IgG, kappa light chain; also called clone #42; m42
B3: antibody 44 (antibody, V domains shown)
VH: B1 VH with A3T, S42P, G44E, N52H, A75T, A80I, A85T, D91E, A98S
VL: QIVLTQSPAVMSASPGEKVTMTCTASSSVYYMYWYQQTPGSSPRLLIYDTSNLASGVPVRFSGSGSGTSYSLTISRMEAEDAATYYCQQWNTYPLTFGAGTKLELK
notes: Mouse IgG, kappa light chain; also called clone #44; m44
B4: antibody 5 (antibody, V domains shown)
VH: B1 VH with A3T, S42P, N52H, D58E, P63S, D74A, A75T, G101S, D111N
VL: QVVLTQSPALMSASPGEKVTMTCSAGSSVSCMYWYQQKPGSSPRVLIYDTSNLASGVPARFTGSGSGTSYSLTISRMEAEDAASYYCQQWNSYPLTFGAGTKLELK
notes: Mouse IgG, kappa light chain; also called clone #5; purified antibody 5
B5: antibody 22 (antibody, V domains shown)
VH: B1 VH with A3T, S42P, N52H, D58E, P63S, D74A, A75T, A80V, G101S, D111N
VL: B4 VL with C31Y, S84T
notes: Mouse IgG, kappa light chain; also called clone #22; m22
B6: antibody 50 (antibody, V domains shown)
VH: QVQLQQSGAELVRPGASVKVSCKASGYAFSNYLIEWVKQRPGQGLEWIGVINPGSGFTKYNEKFKGKATLTADKSSSTAYMQLSSLTSEDSAVYFCARGLYRAMDYWGQGTSVTVSS
VL: DIQMTQSPASQSASLGESVTITCLASQTIGTWLAWYQQKPGKSPQLLIYAAASLADGVPSRFSGGGSGTKFSFKISSLQAEDFVNYYCQQIYSTPYTFGGGTKLEIK
notes: Mouse IgG, kappa light chain; also called clone #50; purified antibody 50
B7: antibody 16 (antibody, V domains shown)
VH: QVTLKESGPGILQPSQTLSLTCSFSGFSLSTFALGVGWIRQPSGRGLEWLAHIWWDDDKYYNPALKSRLTISKDTSKNHVFLKIANVDTADTATYYCARITTYYYGMDYWGQGTSVTVSS
VL: DIVLSQSPATLSVTPGDSVSLFCRASQSIGNHLHWYQQESHASPRLLIKYASQSISGIPSRFSGSGSGTDFTLSINSVETEDFGMYFCQQSYNWPLTFGAGTKLELK
notes: Mouse IgG, kappa light chain; also called clone #16; m16
B8: antibody 3 (antibody, V domains shown)
VH: QVTLKESGPGILQPSQTLSLTCSFSGFSLTTFAMGIGWVRQPSGKGLEWLAHIWWDGEKYNNPVLKSRLTISKDTSKNQVFLRIANVDTPDTATYYCARISSIYYIIDNWGQGTSVTVSS
VL: B7 VL with S5T, D17H, F22S, G30S, H32N, Q38K, E39K, A42E, A51V
notes: Mouse IgG, kappa light chain; also called clone #3; purified antibody 3
B9: antibody 34 (antibody, V domains shown)
VH: QVTLKESGPGILQPSQTLSLTCSFSGFSLSTFSLGVGWIRQSSGKGLEWLAHIWWDDEKYYNPALKSRLTISKDTSKNQVFLKIANVDAADTATYYCARAYYSKSYYALDYWGQGTSVTVSS
VL: DIQMTQSPSSLSASLGERVSLTCRASQEISGYLSWLQQKPDGTIKRLIYAASTLDSGVPKRFSGSRSGSDYSLAISSLESEDFADYYCLQYANFPFTFGSGTKLEIK
notes: Mouse IgG, kappa light chain; also called clone #34; m34

Target: T1, hiR1-FL-WT-T7 (human iRhom1 full length …)
Experiment: FACS on cells of the row human iR1 wild type, vs human iR2 wild type = 100%

Binder	grade of loss of binding vs wild type
B1	3 grade (3 => 95% loss of binding vs wild type)
B2	3 grade (3 => 95% loss of binding vs wild type)
B3	3 grade (3 => 95% loss of binding vs wild type)
B4	3 grade (3 => 95% loss of binding vs wild type)
B5	3 grade (3 => 95% loss of binding vs wild type)
B6	3 grade (3 => 95% loss of binding vs wild type)
B7	3 grade (3 => 95% loss of binding vs wild type)
B8	3 grade (3 => 95% loss of binding vs wild type)
B9	3 grade (3 => 95% loss of binding vs wild type)
